Results on nine sequences are retold here after the DeepSol protein solubility set.

This series is described as follows: soluble on expression in E. coli; label from the status in PepcDB or PDB records.
Take “MSKLYFRYGAMNSGKSTHLMQVAHNYEERGMEVIIIKPSTDKKGGDKVVSRLGVERVVDILIDNDENIIETIEDRLEKGRKIDCIIVDEVQFLKAHHIDELFEIAVGKGIPVICYGLRTDFQMNGFEGSERLLLLAHSIEEMKTICRCGRKAILNGRMINGKFTFEGEQVAIDLVDNVEYQSLCGQCYFKYKYGKDSDNLEHHHHHH”: the “soluble on expression in E. coli” value is reported as “soluble”.
To “RNVDAALFGMISLYAQTKVIDTIIYGSDAGSKASIITAHPDEIAGRIIRELDRSATILPGKGAYSGRETSVVLCTVRKSEFARLKRIIHETDENAFVMVTETTEVIGLGFKDFSDAVQ” belongs “not soluble”.
Regarding “MGSDKIHHHHHHMSQAPYFVPRAPYAEDPSKSKGRRFKEDESRTRTPFARDRDRIIHTSAFRRLKEKTQVFVAHEGDNFRTRLTHTLEVAQVARSLATALGLDADLAETIALAHDLGHPPFGHAGEDELEIQMREYGGFDHNVQTFRVVTELEHRYPDFIGLNLTWETLEGVIKHNGPVTNKLGKPSWKAISKYDNEYELGLGTWASAEAQVAALADDIAYNNHDVDDGVTAGLFTLDDLMDVPLIGPILAAVKSERPDLDARLTHLEAVRRMIGAMVDDVMGETLHRAAASGVQSADDVRALDHALVAFSSDMAEDLARLRGFLYERMYRHWRVNRTRSQARRILGEMFALFLREPEVLPTVWFAKSQNRDEAGRARVVCDYIAGMTDRFAIEEHRKLFHLDVWN”, the “soluble on expression in E. coli” value is on record as “not soluble”.
In the case of “MSILDGFKEVGESNNGKLTMTVMLESVRFSKNVSAVLGFPKYVKVLVNNDEKKFAIQKCNDKDEYAIRFATKKPGEASAVTLRNVDLLVATQKFFSFPELDDPTKIAFYALDGEYYSDEQVIVFNVEGAKNGTVGKRGPKAGSHRKTSQAKLEHHHHHH” it was “soluble”; in that of “MGSDKIHHHHHHMAESETGDKAGQASVKTALRVIEIMEIYAREGRSLTLTELAKLLGAPMSSCLGLIRTLASLGYLYETGRRQGYYPTSRLLNIAQRISRNDPLLERVQPVLETLRDATGETVIFGKLQDDGRVLYLEVRESQNPVRYTATPGELRDVHINSIGRAILGAMTDAARDAALAKVSFQPRTGRTVASREALEREIAMWQQQGWYPNFGESFPDLGAIAVPVEIGGAVYGMSVAGPIHRVESSVDPIVAALLRGQDALRT”, “not soluble”.
In the case of “MSLARDYRWEGVPLKAYKTDGTHFRAITRQTLLGADEDERALGHQTRYFEIAPGGYSSLERHQHTHTVMILRGQGELILGDALHRIGRHDCIYIAPQTFHQFHASGDEPLGFLCIVDRERDRPRLPDDDELARMRALPGVGPKVRTEGHHHHHH” it was “soluble”; in that of “MKLYVLIIAIILSIGTARTQNIDSLLMQREDTTQFIRSDSLVLQFLEYSNIPITDNNKVKLIKSGREKFEDLFEAIRGAKHHIHLEYFNFRNDSIANALFDLLGEKVKEGVKVRAMFDAFGNWSNNKPLKKRHLKAIREKGIEIVKFDPFKFPYINHAAHRDHRKIAVIDGKIGYTGGMNIADYYINGLPKIGTWRDMHIRIEGDAVNILQEIFLDIWNKTTKQNIVGEEYFPNHPERADSCNTVISIVDRTPKRNSRMLSHTYAMSIYAAQHDVRIVNPYFVPTSSIRKALKRALNRGTKVEIMISSKSDIPFTPDASLYAVQKLMKKGAMIYLYNGGFHHSKIMMVDDLFCTVGTANLNSRSLRYDYETNAFIFDKDITQQLNDVFEADMLHCTRLTPEMWKQKSAWKKFKCWFANLFTPFL”, “not soluble”; in that of “MVWFFFSCDEYNEEILKTNSGYWKETVSNTPIIGKWITSNGVKIGEKQVLVFQSYENINGSKSDWVMHVYQPTFLPPNQVIFRIYDV”, “soluble”.
To “MAVTREDLEQNRLRAALGDSPVASTLLTEAALEASLASTLARLSAAPCEGQDAWVFGYGSLIWNPMIFHTEVARATVRGYHRGFYLYSRINRGTWDNPGLVLGLDRGGSCSGVAFRVPRAHAEREFRVLWRREMLTGAYLPRWLPTEIHGERILALAFVMNRTHEAYAGRLPDERVVGCLHKAVGLYGPAREYLQRTLIGLASNGLHDPYLDRLWQRLQAMDINAANAPSQTADTDGTGPLPDPYLSALEHHHHHH” belongs “not soluble”.
